Source: the supplement of paper PMC12764529
± gives the half width of the 95% confidence interval.

Experiments:
[1] = folding stability dG unfold from trypsin proteolysis; higher = more stable
Method in brief: (§1)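 Unfolding free energy was derived, per protease or combined, by relating Bayesian-fitted K50 values from sequencing counts to a sequence-predicted unfolded-state K50 and a shared folded-state K50. The underlying digests exposed cysteine-free mini-proteins under 80 residues, in a PA-tagged cDNA display construct, to trypsin and chymotrypsin at 11 threefold-diluted concentrations and to a no-protease condition. A filter kept only designs with AlphaFold2 dimer inter-PAE above 15.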

[2] = folding stability dG unfold from chymotrypsin proteolysis; higher = more stable
Method in brief: as §1

[3] = folding stability dG unfold (combined trypsin and chymotrypsin); higher = more stable
Method in brief: as §1

Row | Sequence | folding stability dG unfold [1] | folding stability dG unfold [2] | folding stability dG unfold [3]
1 | SAGGSAGGSAGGSTKTYNAEIDNPNGPKITIPIEYRNEDGESDFEEKAKKFAEEYAKKYSAGGSAGGSAGGS [r4_168_TrMRF] | -0.886 ± 0.46 kcal/mol | 0.906 ± 0.16 kcal/mol | 0.547 ± 0.14 kcal/mol
2 | SAGGSAGGSAGGSVTISYNPETGTVVISSPKNKKIITINAENYTPEEILEKAKEAGIDLSAGGSAGGSAGGS [r4_49_TrMRF] | 0.613 ± 0.035 kcal/mol | 2.02 ± 0.056 kcal/mol | 1.64 ± 0.045 kcal/mol
3 | SAGGSAGGSAGGSVTYEADEVEIKEFTDPSTGKKYVTVTFPGPGGPVTTTLPADLIEELSAGGSAGGSAGGS [r10_447_JUSTAS] | 0.96 ± 0.043 kcal/mol | 1.48 ± 0.03 kcal/mol | 1.33 ± 0.093 kcal/mol
4 | SAGGSAGGSAGGSVWIRMPPSKIKDLLDKFGIEPIEIEKMPPGWVYIRITPDALKEAGVFSAGGSAGGSAGG [r7_587_TrROS] | 0.839 ± 0.14 kcal/mol | 0.887 ± 0.3 kcal/mol | 0.946 ± 0.16 kcal/mol
5 | SAGGSAGGSAGGSWITFRIPEGNPEFIEELARGFGIKPKRINPNRGTITIKLPPGAKIVSAGGSAGGSAGGS [r4_3_TrROS] | 0.474 ± 0.12 kcal/mol | 0.645 ± 0.096 kcal/mol | 0.641 ± 0.11 kcal/mol
6 | SAGGSAGGSAGGSWKIDKFTSIERTDGGYVIRIRMENPDGPPMKQTFYFPPGDDELANISAGGSAGGSAGGS [r4_253_TrROS] | 0.285 ± 0.21 kcal/mol | 0.242 ± 0.3 kcal/mol | 0.344 ± 0.27 kcal/mol
7 | SAGGSAGGSAGGSWLEFTFIDPGYGWIISTMKIEINPNGNLNMDMEMVPLKPADDPEDASAGGSAGGSAGGS [r4_178_TrROS] | 2.38 ± 0.13 kcal/mol | 3.32 ± 0.099 kcal/mol | 2.9 ± 0.16 kcal/mol
8 | SAGGSAGGSAGGTGPDTPVTIETTVESVVYEGPEVKVVETFEKKITVTIPPTANPEKVSLSAGGSAGGSAGG [r7_591_JUSTAS] | -0.81 ± 0.43 kcal/mol | -1.06 ± 0.31 kcal/mol | < -1 kcal/mol
9 | SAGGSAGGSAGGTGPPPVKTLVIVANWTEEQAEALKKAFPDQEVTVYEIPGLPKTVAVVSSAGGSAGGSAGG [r17_254_TrMRF] | 0.833 ± 0.03 kcal/mol | 1.42 ± 0.086 kcal/mol | 1.16 ± 0.17 kcal/mol
10 | SAGGSAGGSAGGTIEELVKAGKTVKVRVRLKNGETLEVEIRPDEVVEFPNIEEIEVEEVSAGGSAGGSAGGS [r10_700_TrROS_Hall] | 0.784 ± 0.016 kcal/mol | 1.86 ± 0.026 kcal/mol | 1.51 ± 0.05 kcal/mol
11 | SAGGSAGGSAGGTPITDEEFRDLPDDVKLVFENGEVAYVPRDPLKVPIGADKTVTAEPVPSAGGSAGGSAGG [r7_643_TrMRF] | 1.2 ± 0.059 kcal/mol | 0.388 ± 0.035 kcal/mol | 0.801 ± 0.056 kcal/mol
12 | SAGGSAGGSAGGTVTFFEENEFVIDVPDPLTGRPIRIEVPGDPNKPEEIEARAEELRLSSAGGSAGGSAGGS [r10_379_JUSTAS] | 0.187 ± 0.066 kcal/mol | -0.157 ± 0.096 kcal/mol | 0.0609 ± 0.072 kcal/mol
13 | SAGGSAGGSAGGWAFMWVIEIEMPPEQMPPEDMKKFPNMRIEIEPYWVPIKIDPENGELRSAGGSAGGSAGG [r17_310_TrROS] | 1.71 ± 0.075 kcal/mol | 2.68 ± 0.04 kcal/mol | 2.5 ± 0.19 kcal/mol
14 | SAGGSAGGSAGGWDEIKDILREAGWPVKNVEVQWIPNPENGKPMNSITVSYPDGKKWTIMSAGGSAGGSAGG [r7_337_TrROS] | -0.195 ± 0.13 kcal/mol | 0.0542 ± 0.19 kcal/mol | 0.0642 ± 0.098 kcal/mol
15 | SAGGSAGGSAGGWFYKRDPDGKPLEPRPVVVIKISYEISYDADGGWKLKLNISIYPVYWISAGGSAGGSAGG [r7_572_TrROS] | 3.58 ± 0.15 kcal/mol | 5.01 ± 0.15 kcal/mol | 4.77 ± 0.31 kcal/mol
16 | SAGGSAGGSAGGWIMVPIEIKVDLKWGPNGQHEIETVPILIIIRIPPPPVPEEQAEKNNGSAGGSAGGSAGG [r11_318_TrROS] | 2.89 ± 0.15 kcal/mol | 2.68 ± 0.07 kcal/mol | 2.81 ± 0.19 kcal/mol

Row | Sequence | folding stability dG unfold [1] | folding stability dG unfold [2] | folding stability dG unfold [3]
17 | SAGGSAGGSAGGWNIQVNPDNLKPGKEYRISITHPNGPPIPFEVRLKADGDGDWEFKIESAGGSAGGSAGGS [r10_390_TrROS] | -0.0699 ± 0.059 kcal/mol | 0.183 ± 0.12 kcal/mol | 0.134 ± 0.091 kcal/mol
18 | SAGGSAGGSAGGWNYIIFTIRYEFEYKDPNGKTMKHEVEITIIIPIPPIKRDEDGKYKLSAGGSAGGSAGGS [r10_168_TrROS] | 2.31 ± 0.17 kcal/mol | 3.35 ± 0.17 kcal/mol | 2.79 ± 0.28 kcal/mol
19 | SAGGSAGGSAGGWYRIEIEFGNKPREYVVPGAPPDEAADMLQDPGIKNVKVEPLPPEQLKSAGGSAGGSAGG [r7_502_TrROS] | -0.817 ± 0.65 kcal/mol | 0.537 ± 0.16 kcal/mol | 0.174 ± 0.25 kcal/mol
20 | SAGGSAGGSAGHIPIIFQFEFEHYDPDDGKPKEHRWVIVIEFDGNGIKNIRIIPKEDAKKLLSAGGSAGGSA [r18_406_TrROS] | 2.31 ± 0.085 kcal/mol | 2.28 ± 0.047 kcal/mol | 2.25 ± 0.14 kcal/mol
21 | SAGGSAGGSAGIITIWFPPDEEFRDFIENLPGPIEDVNIEPRNPGWIKVTLTMRMPPDQVSAGGSAGGSAGG [r11_143_TrROS] | 0.703 ± 0.07 kcal/mol | 0.864 ± 0.17 kcal/mol | 0.871 ± 0.17 kcal/mol
22 | SAGGSAGGSAGIKIEWEPNPNGSWRMKIEIPNPNGNPKKIEVWANPNGKIREDEAKEILNSAGGSAGGSAGG [r11_759_TrROS] | 0.707 ± 0.12 kcal/mol | 1.18 ± 0.24 kcal/mol | 1.02 ± 0.39 kcal/mol
23 | SAGGSAGGSAGIKIVAPSPELADMIAKEIAKEFGLPGKIKDIEIEVIPYKPTPNGGYQPYSAGGSAGGSAGG [r17_237_TrROS] | -0.14 ± 0.26 kcal/mol | -0.363 ± 0.75 kcal/mol | -0.383 ± 0.81 kcal/mol
24 | SAGGSAGGSAGIVIKAKSPDEAVEALKKLFEKTGKADINIKPVKVLPDGNVLVEAGIDNKSAGGSAGGSAGG [r17_430_TrMRF] | -0.403 ± 0.054 kcal/mol | -1.43 ± 0.61 kcal/mol | -0.689 ± 0.34 kcal/mol
25 | SAGGSAGGSAGIVIPLDGRPIVIDMYPNGYMRIEVEPPNGKKKTRTFPGAPIEDILKAIKSAGGSAGGSAGG [r11_934_TrROS] | -0.695 ± 0.71 kcal/mol | -0.0199 ± 0.12 kcal/mol | -0.204 ± 0.28 kcal/mol
26 | SAGGSAGGSAGKAESGDNAITLTLPGGHKVTIPNLPPNEPVWVKLNNRWVKIGDLKVNPKSAGGSAGGSAGG [r11_16_TrMRF] | -0.131 ± 0.16 kcal/mol | 0.227 ± 0.25 kcal/mol | 0.196 ± 0.18 kcal/mol
27 | SAGGSAGGSAGKDKGQKEVPEINIRIEPVNFHWEYDKGNGKPKSIHFMFKIRYPNGREITSAGGSAGGSAGG [r11_890_TrROS] | 1.24 ± 0.1 kcal/mol | 0.674 ± 0.29 kcal/mol | 1.15 ± 0.28 kcal/mol
28 | SAGGSAGGSAGKEIIKNIPKGVKVLKIEPLPGKSGTYVKIEVEFPDPNGVKHRLTFIAPESAGGSAGGSAGG [r17_140_TrMRF] | 0.67 ± 0.15 kcal/mol | 1.34 ± 0.14 kcal/mol | 1.16 ± 0.23 kcal/mol
29 | SAGGSAGGSAGKEKTITVLLEVDGYLVVAEVKLNEDGSLEITSVKVIKLPKPKPSPEALKSAGGSAGGSAGG [r11_843_TrROS_Hall] | 1.07 ± 0.048 kcal/mol | 0.516 ± 0.033 kcal/mol | 0.907 ± 0.21 kcal/mol
30 | SAGGSAGGSAGKETITITLVVTDENGEKYLIRVEAKIDPKTNKITITKIEIIRLDDLKKLSAGGSAGGSAGG [r11_777_TrROS_Hall] | 1.12 ± 0.093 kcal/mol | 1.72 ± 0.058 kcal/mol | 1.75 ± 0.41 kcal/mol
31 | SAGGSAGGSAGKFKIKVFTHPDGYALALIEVPLGDKPVLILTLIKFPEDGNAEAETFIFPSAGGSAGGSAGG [r11_555_TrMRF] | 2.06 ± 0.053 kcal/mol | 3.25 ± 0.077 kcal/mol | 2.84 ± 0.13 kcal/mol
